Test results as given in paper doi:10.1101/2023.12.20.572361.

B1: dystroglycan (mDag1): T315A/T317A (protein)
parent chain: MSVDNWLLHPLWGQTFLLLLSVAVAQAHWPSEPSEAVRDWKNQLEASMHSVLSDFQEAVPTVVGIPDGTAVVGRSFRVSIPTDLIASSGEIIKVSAAGKEALPSWLHWDPHSHILEGLPLDTDKGVHYISVSAARLGANGSHVPQTSSVFSIEVYPEDHNEPQSVRAASSDPGEVVPSACAADEPVTVLTVILDADLTKMTPKQRIDLLNRMQSFSEVELHNMKLVPVVNNRLFDMSAFMAGPGNAKKVVENGALLSWKLGCSLNQNSVPDIRGVETPAREGAMSAQLGYPVVGWHIANKKPTLPKRLRRQIHATPTPVTAIGPPTTAIQEPPSRIVPTPTSPAIAPPTETMAPPVRDPVPGKPTVTIRTRGAIIQTPTLGPIQPTRVSEAGTTVPGQIRPTLTIPGYVEPTAVITPPTTTTKKPRVSTPKPATPSTDSSTTTTRRPTKKPRTPRPVPRVTTKAPITRLETASPPTRIRTTTSGVPRGGEPNQRPELKNHIDRVDAWVGTYFEVKIPSDTFYDNEDTTTDKLKLTLKLREQQLVGEKSWVQFNSNSQLMYGLPDSSHVGKHEYFMHATDKGGLSAVDAFEIHVHKRPQGDKAPARFKARLAGDPAPVVNDIHKKIALVKKLAFAFGDRNCSSITLQNITRGSIVVEWTNNTLPLEPCPKEQIIGLSRRIADENGKPRPAFSNALEPDFKALSIAVTGSGSCRHLQFIPVAPPSPGSSAAPATEVPDRDPEKSSEDDVYLHTVIPAVVVAAILLIAGIIAMICYRKKRKGKLTLEDQATFIKKGVPIIFADELDDSKPPPSSSMPLILQEEKAPLPPPEYPNQSMPETTPLNQDTVGEYTPLRDEDPNAPPYQPPPPFTAPMEGKGSRPKNMTPYRSPPPYVPP
B2: dystroglycan (mDag1): T377A/T379A (protein)
parent chain: B1 parent chain
B3: dystroglycan (mDag1): 4X mut. (floxed WT allele removed by Pax7-Cre or AAV-CMV-Cre) (protein)
parent chain: B1 parent chain
B4: dystroglycan (mDag1): Pax7-Cre 4X mutant (protein)
parent chain: B1 parent chain
B5: dystroglycan (mDag1): AAV 4X mutant DG (protein)
parent chain: B1 parent chain
B6: dystroglycan (mDag1): AAV T315A/T317A DAG1 (protein)
parent chain: B1 parent chain
B7: dystroglycan (mDag1): 4X mut. (Pax7-Cre or AAV-CMV-Cre) (protein)
parent chain: B1 parent chain
B8: dystroglycan (mDag1): 4X mut. (protein)
parent chain: B1 parent chain

Legend:
[1] = EDL CSA from mass and fibre length; details: glycan lost; control: WT mice
[2] = H&E and immunofluorescence of skeletal muscle; details: glycan lost; control: WT mice
[3] = EDL isometric tetanic and specific force in vitro; details: glycan lost; control: WT mice
[4] = EDL eccentric contraction protocol; details: glycan lost; control: WT mice
[5] = homozygous birth rate from heterozygous crosses; details: glycan lost; control: expected Mendelian ratio
[6] = glycan lost; control: WT mice
[7] = forelimb grip strength, AAV rescue of DAG1 KO; details: glycan lost; control: AAV WT DAG1
[8] = forelimb grip strength test; details: glycan lost; control: WT mice

| Protein | other: skeletal muscle histopathology [2] | other: muscle contractile force [3] | other: susceptibility to contraction-induced injury [4] | other: embryonic viability, other: homozygous birth rate [5] | also measured |
| --- | --- | --- | --- | --- | --- |
| B1 | no change | no change | no change | 10% | other: muscle cross-sectional area [1]: changes |
| B2 | no change | no change | no change | 22% | other: muscle cross-sectional area [1]: no change |
| B3 | increases | – | – | – | – |
| B4 | – | – | – | – | other: neuromuscular junction integrity [6]: decreases |
| B5 | – | – | – | – | other: rescue of grip strength [7]: abolishes |
| B6 | – | – | – | – | other: rescue of grip strength [7]: no change |
| B7 | – | decreases | increases | – | other: grip strength [8]: decreases |
| B8 | – | – | – | abolishes | – |
